Experimental data published in paper PMC3642142.

Target: IAEDANS-labeled K75C mutant calmodulin (UniProt P0DP23)
Assay: other fluorescence titration; IAEDANS emission (excitation 340 nm, emission 475 nm) of about 1 nM I-CaM; LSEL15 titrated; 10 mM MOPS pH 7.4, 100 mM NaCl, 0.3 mM CaCl2, 0.1 mg/ml BSA

- Kd: 3.8 nM
Substance: Peptide LSEL15 (L-selectin residues Ala311-Lys325)
